Measurements taken from article PMC7809796.

Target: Cdc4 (UniProt P07834)
Assay: His-Far1
Details: reference: wild type Far1(85-150)

| binding against the reference (sites S91) | binding against the reference (sites S87) | Substance |
| --- | --- | --- |
| lost | – | Far1 85-150 (from UniProt P21268) S91 mutant (taken as S91A; not spelled out in text) |
| – | lost | Far1 85-150 (from UniProt P21268) S87 mutant (taken as S87A; not spelled out in text) |
